Experimental data taken from IntAct's records for PubMed 11698381.

B1: pH-response regulator protein palA/RIM20 (Saccharomyces cerevisiae), Q12033 (parent)
chain: MSELLAIPLKRTLEVDFATELSKLIDTTSFQTASFFQSDILKVVDARNNAIAPDISIDGLSALKEYYVILLQLEKKFPNNQIEFTWFQTLSQKSRGTSQYSLQWEKLTIIYNIGCMYSLLALNSNNDAAESLKTSCLYFQNAAGCFKHVLDHQKNLETIPVVDDATLNALTSLMLAQAQECFWFKAVQDKHKDSLIAKLSQQIVDFYCEAINDAQRGKLIRSDWINHLKAKKAYFSAVTYYRIALSFNEKKQFGNVVKALQMGLQFINESTLSSQAKFKTVVESSLKEAQRDNEFIYLQEVPSELPSIKPALMVKPSSSATLLPSIKKDETLFKDLIPIEVMEYCTAYNERQDEYVEQRVTNPLASLNKLLKESLTTFQIPQGLTKVSEAELSHYQASLNNLLINNKNVQVQLDNIEQILNEEAFTDNQLRLKHGTLNWTLPESSTTNTAYYEKLKKLRGYLDEGSAIDKQTNELFQSIDKNLIGSEIRLPESNDPLTNKIKMIIQERNDYIDRTRRKSSEYRILPKIITSYKKNGTVDFEPIFIGHLKYFDEDLRYVNSTKEENIKLIEEVNLSKKNNPGRSGIEPKKMVRIDPRELYIEDLRYSFKLLDEVKENLSAGTAFYENLITSTSNLYNEVQEYDTARRAEKARLDKSLTFEDQ

Variants of: B1
Details: with pacc_yeast RIM101, P33400
Chain of pacc_yeast RIM101, P33400 (P33400 whole entry): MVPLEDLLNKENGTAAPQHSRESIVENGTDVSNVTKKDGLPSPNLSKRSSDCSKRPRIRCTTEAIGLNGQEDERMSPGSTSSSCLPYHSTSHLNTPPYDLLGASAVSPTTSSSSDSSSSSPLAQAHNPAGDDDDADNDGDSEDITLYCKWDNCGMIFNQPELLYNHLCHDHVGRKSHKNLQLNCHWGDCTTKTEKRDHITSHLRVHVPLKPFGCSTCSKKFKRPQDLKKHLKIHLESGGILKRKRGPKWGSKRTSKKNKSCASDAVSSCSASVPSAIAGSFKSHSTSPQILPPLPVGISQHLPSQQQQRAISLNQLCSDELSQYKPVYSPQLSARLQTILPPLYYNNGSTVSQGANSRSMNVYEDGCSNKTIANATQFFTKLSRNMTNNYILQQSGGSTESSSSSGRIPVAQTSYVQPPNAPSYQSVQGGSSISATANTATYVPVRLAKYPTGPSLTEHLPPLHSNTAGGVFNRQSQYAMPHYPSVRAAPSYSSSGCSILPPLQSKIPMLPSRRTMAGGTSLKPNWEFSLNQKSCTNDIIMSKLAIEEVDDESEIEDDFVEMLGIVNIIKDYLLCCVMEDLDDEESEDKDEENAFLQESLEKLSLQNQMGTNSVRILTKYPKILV

effect of a mutation on the interaction | Variant
disrupting interaction | Q177A;Q179A;E180A
disrupting interaction | F623A;Y624A
